Assay results taken from paper PMC7542363.

Assay: overnight CpaA digestion, SDS-PAGE
Conditions: glycan changed form; control: untreated fetuin

B1: fetuin (alpha-2-HS-glycoprotein): asialofetuin (protein)
parent chain: MKSFVLLFCLAQLWGCHSIPLDPVAGYKEPACDDPDTEQAALAAVDYINKHLPRGYKHTLNQIDSVKVWPRRPTGEVYDIEIDTLETTCHVLDPTPLANCSVRQQTQHAVEGDCDIHVLKQDGQFSVLFTKCDSSPDSAEDVRKLCPDCPLLAPLNDSRVVHAVEVALATFNAESNGSYLQLVEISRAQFVPLPVSVSVEFAVAATDCIAKEVVDPTKCNLLAEKQYGFCKGSVIQKALGGEDVRVTCTLFQTQPVIPQPQPDGAEAEAPSAVPDAAGPTPSAAGPPVASVVVGPSVVAVPLPLHRAHYDLRHTFSGVASVESSSGEAFHVGKTPIVGQPSIPGGPVRLCPGRIRYFKI
Question: With B1 as the protein, how does the “other: proteolytic processing” value read?
Answer: The value was “no change”.
